Reference: US20250332197A1 (SUNSHINE LAKE PHARMA, published 2025)
Substitutions are numbered along the chain they refer to.

B1: 1E7-huVH3-HC (IgG1) huVL2 (antibody)
heavy: not shown
light: DIQMTQSPSSLSASVGDRVTMTCKSSQSLLNSGNQKNYLTWYQQKPGKAPKLLIYWASTRESGVPSRFSGSGSGTDFTLTISSLQPEDFATYYCQNDYSYPFTFGGGTKLEIKRTVAAPSVFIFPPSDEQLKSGTASVVCLLNNFYPREAKVQWKVDNALQSGNSQESVTEQDSKDSTYSLSSTLTLSKADYEKHKVYACEVTHQGLSSPVTKSFNRGEC
notes: humanized 1E7, human IgG1, kappa
B2: 1B6-huVH3huVL2 (antibody, human IgG4 S228P, kappa)
heavy: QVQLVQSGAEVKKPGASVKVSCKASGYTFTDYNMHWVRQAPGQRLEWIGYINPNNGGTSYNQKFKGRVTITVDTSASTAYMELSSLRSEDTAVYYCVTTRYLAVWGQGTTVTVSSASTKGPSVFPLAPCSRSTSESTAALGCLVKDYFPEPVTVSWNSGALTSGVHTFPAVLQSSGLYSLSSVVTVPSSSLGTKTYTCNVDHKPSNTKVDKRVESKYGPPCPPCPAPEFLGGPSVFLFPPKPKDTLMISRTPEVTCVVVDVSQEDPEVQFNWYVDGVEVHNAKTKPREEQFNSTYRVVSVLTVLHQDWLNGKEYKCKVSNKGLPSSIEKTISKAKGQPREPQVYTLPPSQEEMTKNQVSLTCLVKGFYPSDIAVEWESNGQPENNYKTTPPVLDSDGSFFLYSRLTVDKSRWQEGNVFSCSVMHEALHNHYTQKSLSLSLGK
light: B1 light with L30F, F102L
notes: humanized 1B6, human IgG4, kappa
B3: 1E7-huVH3huVL2 (antibody, human IgG4 S228P, kappa)
heavy: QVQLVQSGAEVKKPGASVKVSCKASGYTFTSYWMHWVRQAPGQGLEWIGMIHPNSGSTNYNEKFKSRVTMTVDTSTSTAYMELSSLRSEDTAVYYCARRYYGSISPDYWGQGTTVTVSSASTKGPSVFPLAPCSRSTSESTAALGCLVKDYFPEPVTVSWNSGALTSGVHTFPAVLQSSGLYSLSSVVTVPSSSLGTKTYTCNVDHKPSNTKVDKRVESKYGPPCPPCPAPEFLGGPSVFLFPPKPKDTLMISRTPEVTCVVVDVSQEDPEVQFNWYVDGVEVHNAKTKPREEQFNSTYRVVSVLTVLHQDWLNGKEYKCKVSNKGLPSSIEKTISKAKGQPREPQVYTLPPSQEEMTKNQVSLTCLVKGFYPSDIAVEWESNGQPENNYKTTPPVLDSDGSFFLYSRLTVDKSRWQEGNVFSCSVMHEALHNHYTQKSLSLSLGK
light: B1 light
notes: humanized 1E7, human IgG4, kappa
B4: 1B6-huVH4huVL2 (antibody, human IgG4 S228P, kappa)
heavy: not shown
light: B1 light with L30F, F102L
notes: as for B2
B5: 1E7-huVH4-HC (IgG1) huVL2 (antibody)
heavy: not shown
light: B1 light
notes: as for B1
B6: 1B6-huVH3huVL1 (antibody, human IgG4 S228P, kappa)
heavy: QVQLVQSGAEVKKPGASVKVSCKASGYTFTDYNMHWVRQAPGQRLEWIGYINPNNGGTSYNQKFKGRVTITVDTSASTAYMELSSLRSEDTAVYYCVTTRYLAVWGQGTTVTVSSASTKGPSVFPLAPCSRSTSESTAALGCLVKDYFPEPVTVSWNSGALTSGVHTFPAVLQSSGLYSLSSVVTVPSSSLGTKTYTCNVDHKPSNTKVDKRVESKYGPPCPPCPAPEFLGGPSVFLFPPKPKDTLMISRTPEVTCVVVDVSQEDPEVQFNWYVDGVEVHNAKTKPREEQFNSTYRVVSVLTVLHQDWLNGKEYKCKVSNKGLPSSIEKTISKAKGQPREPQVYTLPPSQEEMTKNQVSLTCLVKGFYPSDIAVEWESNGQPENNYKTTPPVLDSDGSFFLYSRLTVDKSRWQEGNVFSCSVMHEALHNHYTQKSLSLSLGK
light: B1 light with Q3V, A13V, L30F, S66D, L84V, Y93F, F102L
notes: humanized 1B6, human IgG4, kappa; also called P04887
B7: 1E7-huVH2huVL2 (antibody, human IgG4 S228P, kappa)
heavy: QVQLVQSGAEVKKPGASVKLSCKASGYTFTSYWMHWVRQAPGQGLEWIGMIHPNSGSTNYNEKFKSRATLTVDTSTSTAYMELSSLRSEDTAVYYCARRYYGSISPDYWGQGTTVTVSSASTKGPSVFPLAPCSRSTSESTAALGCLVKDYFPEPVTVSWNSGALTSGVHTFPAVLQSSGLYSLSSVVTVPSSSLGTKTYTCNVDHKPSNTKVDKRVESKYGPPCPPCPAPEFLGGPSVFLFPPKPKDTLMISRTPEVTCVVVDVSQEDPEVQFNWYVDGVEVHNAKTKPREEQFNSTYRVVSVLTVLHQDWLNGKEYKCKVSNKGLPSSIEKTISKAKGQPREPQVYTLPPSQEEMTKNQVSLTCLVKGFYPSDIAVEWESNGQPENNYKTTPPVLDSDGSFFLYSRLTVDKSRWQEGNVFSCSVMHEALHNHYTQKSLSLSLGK
light: B1 light
notes: humanized 1E7, human IgG4, kappa; also called P04898
B8: 1B6-huVH3huVL3 (antibody, human IgG4 S228P, kappa)
heavy: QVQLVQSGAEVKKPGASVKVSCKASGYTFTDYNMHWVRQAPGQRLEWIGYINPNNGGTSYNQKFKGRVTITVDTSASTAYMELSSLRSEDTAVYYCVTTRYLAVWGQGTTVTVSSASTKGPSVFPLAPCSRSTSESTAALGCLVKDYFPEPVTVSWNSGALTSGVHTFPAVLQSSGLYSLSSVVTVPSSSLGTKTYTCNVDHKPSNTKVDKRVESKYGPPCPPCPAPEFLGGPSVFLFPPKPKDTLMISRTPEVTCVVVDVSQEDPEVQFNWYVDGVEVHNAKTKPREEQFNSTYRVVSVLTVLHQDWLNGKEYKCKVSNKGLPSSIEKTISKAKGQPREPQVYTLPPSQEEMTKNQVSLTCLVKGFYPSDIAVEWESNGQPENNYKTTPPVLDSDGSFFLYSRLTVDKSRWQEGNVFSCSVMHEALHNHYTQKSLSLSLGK
light: B1 light with M21I, K24R, L30F, F102L
notes: as for B2
B9: 1E7-huVH5huVL3 (antibody, human IgG4 S228P, kappa)
heavy: not shown
light: B1 light with M21I, K24R
notes: as for B3
B10: 1E7-huVH1huVL1 (antibody, human IgG4 S228P, kappa)
heavy: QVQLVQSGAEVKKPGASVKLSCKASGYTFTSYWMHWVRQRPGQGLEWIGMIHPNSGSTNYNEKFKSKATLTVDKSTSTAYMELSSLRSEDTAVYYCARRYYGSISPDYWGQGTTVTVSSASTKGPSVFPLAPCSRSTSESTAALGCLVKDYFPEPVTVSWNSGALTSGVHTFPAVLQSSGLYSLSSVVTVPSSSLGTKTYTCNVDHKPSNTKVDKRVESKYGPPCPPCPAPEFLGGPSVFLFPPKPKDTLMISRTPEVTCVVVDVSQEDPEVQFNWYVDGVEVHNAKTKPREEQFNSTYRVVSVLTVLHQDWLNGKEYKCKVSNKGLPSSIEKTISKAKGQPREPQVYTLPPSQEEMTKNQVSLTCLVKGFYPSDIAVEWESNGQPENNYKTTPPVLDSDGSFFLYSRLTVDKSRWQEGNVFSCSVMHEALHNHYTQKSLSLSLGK
light: B1 light with Q3V, A13V, K48Q, A49P, S66D, L84V
notes: as for B3
B11: 1E7-huVH5-HC (IgG1) huVL3 (antibody)
heavy: not shown
light: B1 light with M21I, K24R
notes: as for B1
B12: 1E7-huVH2huVL1 (antibody, human IgG4 S228P, kappa)
heavy: not shown
light: B1 light with Q3V, A13V, K48Q, A49P, S66D, L84V
notes: as for B3
B13: 1E7-huVH4huVL2 (antibody, human IgG4 S228P, kappa)
heavy: not shown
light: B1 light
notes: humanized 1E7, human IgG4, kappa; also called P04902
B14: 1E7-huVH4-HC (IgG1) huVL3 (antibody)
heavy: not shown
light: B1 light with M21I, K24R
notes: as for B1
B15: 1E7-huVH5huVL2 (antibody, human IgG4 S228P, kappa)
heavy: not shown
light: B1 light
notes: as for B3
B16: 1B6-huVH4huVL3 (antibody, human IgG4 S228P, kappa)
heavy: not shown
light: B1 light with M21I, K24R, L30F, F102L
notes: humanized 1B6, human IgG4, kappa; also called P04891
B17: 1E7-huVH3-HC (IgG1) huVL3 (antibody)
heavy: not shown
light: B1 light with M21I, K24R
notes: as for B1
B18: 1E7-huVH3huVL3 (antibody, human IgG4 S228P, kappa)
heavy: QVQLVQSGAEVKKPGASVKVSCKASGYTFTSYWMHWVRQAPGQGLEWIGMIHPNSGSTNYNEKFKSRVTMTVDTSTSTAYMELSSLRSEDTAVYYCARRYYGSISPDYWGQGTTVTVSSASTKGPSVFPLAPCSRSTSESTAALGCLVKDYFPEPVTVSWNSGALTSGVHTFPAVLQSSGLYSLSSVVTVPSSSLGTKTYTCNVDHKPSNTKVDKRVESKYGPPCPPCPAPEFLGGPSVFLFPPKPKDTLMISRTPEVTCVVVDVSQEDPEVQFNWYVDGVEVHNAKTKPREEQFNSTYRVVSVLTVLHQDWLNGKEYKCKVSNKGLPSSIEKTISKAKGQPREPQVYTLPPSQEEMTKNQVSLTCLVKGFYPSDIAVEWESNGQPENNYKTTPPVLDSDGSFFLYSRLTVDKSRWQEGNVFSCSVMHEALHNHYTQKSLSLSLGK
light: B1 light with M21I, K24R
notes: as for B3
B19: 1E7-huVH1-HC (IgG1) huVL1 (antibody)
heavy: not shown
light: B1 light with Q3V, A13V, K48Q, A49P, S66D, L84V
notes: as for B1
B20: 1E7-huVH1-HC (IgG1) huVL2 (antibody)
heavy: not shown
light: B1 light
notes: as for B1
B21: 1B6-huVH2huVL2 (antibody, human IgG4 S228P, kappa)
heavy: not shown
light: B1 light with L30F, F102L
notes: as for B2
B22: 1E7-huVH5-HC (IgG1) huVL2 (antibody)
heavy: not shown
light: B1 light
notes: as for B1
B23: 1E7-huVH3-HC (IgG1) huVL1 (antibody)
heavy: not shown
light: B1 light with Q3V, A13V, K48Q, A49P, S66D, L84V
notes: as for B1
B24: 1E7-huVH3huVL1 (antibody, human IgG4 S228P, kappa)
heavy: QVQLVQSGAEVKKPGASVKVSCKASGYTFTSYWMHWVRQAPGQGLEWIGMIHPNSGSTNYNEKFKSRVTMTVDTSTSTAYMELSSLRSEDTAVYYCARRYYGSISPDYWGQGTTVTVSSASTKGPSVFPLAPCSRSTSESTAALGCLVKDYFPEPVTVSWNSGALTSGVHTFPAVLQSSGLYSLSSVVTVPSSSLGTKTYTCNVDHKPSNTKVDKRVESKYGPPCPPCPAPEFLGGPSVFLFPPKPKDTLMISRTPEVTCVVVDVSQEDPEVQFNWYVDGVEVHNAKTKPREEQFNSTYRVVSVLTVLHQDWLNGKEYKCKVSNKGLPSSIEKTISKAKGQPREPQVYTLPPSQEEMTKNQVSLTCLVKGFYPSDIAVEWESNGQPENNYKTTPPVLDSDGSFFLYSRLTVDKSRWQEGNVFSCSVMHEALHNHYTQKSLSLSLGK
light: B1 light with Q3V, A13V, K48Q, A49P, S66D, L84V
notes: as for B3
B25: 1B6-huVH1huVL2 (antibody, human IgG4 S228P, kappa)
heavy: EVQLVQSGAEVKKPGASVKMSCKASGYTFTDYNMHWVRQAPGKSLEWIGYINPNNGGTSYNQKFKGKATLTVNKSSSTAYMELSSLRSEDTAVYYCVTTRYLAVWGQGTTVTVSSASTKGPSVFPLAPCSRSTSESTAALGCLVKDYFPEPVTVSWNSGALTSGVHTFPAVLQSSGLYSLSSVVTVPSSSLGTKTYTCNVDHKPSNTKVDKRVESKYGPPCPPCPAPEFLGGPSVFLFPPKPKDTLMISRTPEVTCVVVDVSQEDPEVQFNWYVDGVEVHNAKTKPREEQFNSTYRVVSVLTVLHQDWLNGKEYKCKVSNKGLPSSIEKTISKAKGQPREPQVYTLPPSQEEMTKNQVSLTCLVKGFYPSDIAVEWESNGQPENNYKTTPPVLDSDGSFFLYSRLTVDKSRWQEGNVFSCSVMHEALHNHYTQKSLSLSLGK
light: B1 light with L30F, F102L
notes: as for B2
B26: 1B6-huVH2huVL1 (antibody, human IgG4 S228P, kappa)
heavy: not shown
light: B1 light with Q3V, A13V, L30F, S66D, L84V, Y93F, F102L
notes: as for B2
B27: 1E7-huVH1huVL2 (antibody, human IgG4 S228P, kappa)
heavy: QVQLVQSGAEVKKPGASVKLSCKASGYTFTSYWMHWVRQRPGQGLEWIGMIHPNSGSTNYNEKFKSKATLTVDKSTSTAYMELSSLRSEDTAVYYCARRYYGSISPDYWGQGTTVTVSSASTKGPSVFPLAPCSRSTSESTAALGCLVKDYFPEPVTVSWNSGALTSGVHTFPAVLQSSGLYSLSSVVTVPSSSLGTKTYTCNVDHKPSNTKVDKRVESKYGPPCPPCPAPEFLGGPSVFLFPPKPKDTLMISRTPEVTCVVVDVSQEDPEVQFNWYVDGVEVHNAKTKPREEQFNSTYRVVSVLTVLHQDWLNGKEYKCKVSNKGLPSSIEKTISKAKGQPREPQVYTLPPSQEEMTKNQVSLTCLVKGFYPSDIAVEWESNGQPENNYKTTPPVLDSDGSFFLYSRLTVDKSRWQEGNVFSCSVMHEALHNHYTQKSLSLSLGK
light: B1 light
notes: as for B3
B28: 1B6-huVH5huVL3 (antibody, human IgG4 S228P, kappa)
heavy: not shown
light: B1 light with M21I, K24R, L30F, F102L
notes: as for B2
B29: 1B6-huVH5huVL2 (antibody, human IgG4 S228P, kappa)
heavy: not shown
light: B1 light with L30F, F102L
notes: as for B2
B30: 1E7-huVH4huVL3 (antibody, human IgG4 S228P, kappa)
heavy: not shown
light: B1 light with M21I, K24R
notes: as for B3
B31: 1E7-huVH2-HC (IgG1) huVL1 (antibody)
heavy: not shown
light: B1 light with Q3V, A13V, K48Q, A49P, S66D, L84V
notes: as for B1
B32: 1E7-huVH2-HC (IgG1) huVL2 (antibody)
heavy: not shown
light: B1 light
notes: as for B1
B33: 1E7-mVHmVL (antibody, human IgG4 S228P, kappa)
heavy: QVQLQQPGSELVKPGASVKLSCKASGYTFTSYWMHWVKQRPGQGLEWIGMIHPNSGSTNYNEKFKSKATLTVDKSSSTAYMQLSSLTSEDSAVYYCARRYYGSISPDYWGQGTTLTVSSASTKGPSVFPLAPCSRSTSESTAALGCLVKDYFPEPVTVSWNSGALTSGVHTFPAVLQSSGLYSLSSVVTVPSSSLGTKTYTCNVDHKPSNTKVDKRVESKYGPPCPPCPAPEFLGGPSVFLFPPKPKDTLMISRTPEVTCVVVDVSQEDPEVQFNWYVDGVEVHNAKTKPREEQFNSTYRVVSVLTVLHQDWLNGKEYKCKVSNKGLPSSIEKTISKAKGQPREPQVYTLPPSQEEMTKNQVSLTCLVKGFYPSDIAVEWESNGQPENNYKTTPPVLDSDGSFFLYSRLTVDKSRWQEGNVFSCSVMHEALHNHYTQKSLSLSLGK
light: DIVMTQSPSSLSVTAGEKVTMSCKSSQSLLNSGNQKNYLTWYQQKPGQPPKLLIYWASTRESGVPDRFTGSGSGTDFTLTISSVQAEDLAVYYCQNDYSYPFTFGSGTKLEIKRTVAAPSVFIFPPSDEQLKSGTASVVCLLNNFYPREAKVQWKVDNALQSGNSQESVTEQDSKDSTYSLSSTLTLSKADYEKHKVYACEVTHQGLSSPVTKSFNRGEC
notes: also called chimeric antibody 1E7; chimeric antibody murine 1E7 monoclonal antibody
B34: 1B6-mVH-HC (IgG1) mVL (antibody)
heavy: not shown
light: B33 light with S12T, L30F, Y93F, F102L, S106A, I112L
notes: also called chimeric antibody 1B6-mVH-HC (IgG1) mVL
B35: 1E7-mVH-HC (IgG1) mVL (antibody)
heavy: not shown
light: B33 light
notes: also called chimeric antibody 1E7-mVH-HC (IgG1) mVL
B36: 1B6-mVHmVL (antibody, human IgG4 S228P, kappa)
heavy: not shown
light: B33 light with S12T, L30F, Y93F, F102L, S106A, I112L
notes: also called chimeric antibody 1B6; chimeric antibody murine 1B6 monoclonal antibody

Columns and labels:
[1] = molecular target: T1, claudin-18.2 antigen (manufacturer: GenScript, batch number: R50092011) (UniProt P56856-2 1-261, limits assumed); experiment: Gator label-free kinetics, antibody loaded, antigen 2000-500 nM
T1 construct: Bought antigen
T1 sequence (looked up): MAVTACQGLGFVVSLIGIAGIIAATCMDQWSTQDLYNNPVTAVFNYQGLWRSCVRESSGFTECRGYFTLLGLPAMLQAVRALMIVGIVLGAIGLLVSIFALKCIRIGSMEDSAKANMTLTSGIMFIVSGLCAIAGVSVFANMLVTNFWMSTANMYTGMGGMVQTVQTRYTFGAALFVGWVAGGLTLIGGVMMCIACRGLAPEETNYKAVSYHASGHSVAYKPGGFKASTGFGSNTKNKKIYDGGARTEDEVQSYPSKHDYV
Method: The GATOR instrument and associated software were opened and the Kinetics experimental mode was selected. After data collection, Kinetics fitting was performed to calculate the affinity kinetic parameters. The correlation coefficient R² of all antibodies in the Global fitting mode was greater than 0.95, which met the system suitability requirements and the results were reliable.

[2] = molecular target: T1, claudin-18.2 antigen (manufacturer: …); experiment: ELISA, plate coated with claudin-18.2 antigen
Method: The ELISA plates were washed three times with PBST and blocked with 5% PBS-milk for 2 h at room temperature. The ELISA plate was washed three times with PBST, and the diluted antibodies were added to the ELISA plate, 30 μL per well, and incubated at room temperature for 60 min. The plates were washed three times with PBST and incubated with anti-human IgG-Fc-HRP (abcam, ab97225) for 50 min at room temperature. The plate was washed 12 times with PBST, and TMB was added, 30 μL per well. The reaction was terminated with stop solution and OD450 was read. The ELISA affinity EC50 was calculated.

Row | Binder | Kd [1] | koff [1] | kon [1] | EC50 [2]
1 | B1 | 0.289 nM | 2.94e-06 s⁻¹ | 10200 M⁻¹ s⁻¹ | 0.0576 µg/mL
2 | B2 | 12.7 nM | 0.000121 s⁻¹ | 9480 M⁻¹ s⁻¹ | 0.245 µg/mL
3 | B3 | 2.02 nM | 2.08e-05 s⁻¹ | 10300 M⁻¹ s⁻¹ | 0.56 µg/mL
4 | B4 | 7.06 nM | 7.06e-05 s⁻¹ | 9990 M⁻¹ s⁻¹ | 0.21 µg/mL
5 | B5 | 10.7 nM | 0.000126 s⁻¹ | 11800 M⁻¹ s⁻¹ | 0.0397 µg/mL
6 | B6 | 0.98 nM | 1.27e-05 s⁻¹ | 13000 M⁻¹ s⁻¹ | 0.0569 µg/mL
7 | B7 | 21.6 nM | 0.000269 s⁻¹ | 12400 M⁻¹ s⁻¹ | 0.262 µg/mL
8 | B8 | 8.11 nM | 8.56e-05 s⁻¹ | 10600 M⁻¹ s⁻¹ | 0.209 µg/mL
9 | B9 | 3.21 nM | 3.09e-05 s⁻¹ | 9610 M⁻¹ s⁻¹ | 0.0931 µg/mL
10 | B10 | 3.58 nM | 3.81e-05 s⁻¹ | 10600 M⁻¹ s⁻¹ | 0.309 µg/mL
11 | B11 | 0.929 nM | 9.83e-06 s⁻¹ | 10600 M⁻¹ s⁻¹ | 0.13 µg/mL
12 | B12 | 0.277 nM | 2.65e-06 s⁻¹ | 9550 M⁻¹ s⁻¹ | 0.436 µg/mL
13 | B13 | 4.6 nM | 4.86e-05 s⁻¹ | 10600 M⁻¹ s⁻¹ | 0.309 µg/mL
14 | B14 | 2.64 nM | 2.99e-05 s⁻¹ | 11300 M⁻¹ s⁻¹ | 0.05 µg/mL
15 | B15 | 5.24 nM | 5.29e-05 s⁻¹ | 10100 M⁻¹ s⁻¹ | 0.496 µg/mL
16 | B16 | 7.24 nM | 8.07e-05 s⁻¹ | 11100 M⁻¹ s⁻¹ | 0.346 µg/mL
17 | B17 | 11.6 nM | 0.000132 s⁻¹ | 11300 M⁻¹ s⁻¹ | 0.0707 µg/mL
18 | B18 | 13.5 nM | 0.000149 s⁻¹ | 11000 M⁻¹ s⁻¹ | 0.509 µg/mL

Row | Binder | Kd [1] | koff [1] | kon [1] | EC50 [2]
19 | B19 | 4.9 nM | 5.97e-05 s⁻¹ | 12200 M⁻¹ s⁻¹ | 0.0479 µg/mL
20 | B20 | 4.85 nM | 5.87e-05 s⁻¹ | 12100 M⁻¹ s⁻¹ | 0.0305 µg/mL
21 | B21 | 4.86 nM | 6.78e-05 s⁻¹ | 13900 M⁻¹ s⁻¹ | 0.192 µg/mL
22 | B22 | 13.1 nM | 0.000167 s⁻¹ | 12800 M⁻¹ s⁻¹ | 0.141 µg/mL
23 | B23 | 0.35 nM | 3.6e-06 s⁻¹ | 10300 M⁻¹ s⁻¹ | 0.0663 µg/mL
24 | B24 | 12 nM | 0.000132 s⁻¹ | 11000 M⁻¹ s⁻¹ | 0.606 µg/mL
25 | B25 | 10.6 nM | 0.000164 s⁻¹ | 15500 M⁻¹ s⁻¹ | 0.0775 µg/mL
26 | B26 | 4.57 nM | 6.36e-05 s⁻¹ | 13900 M⁻¹ s⁻¹ | 0.0978 µg/mL
27 | B27 | 5.08 nM | 5.56e-05 s⁻¹ | 10900 M⁻¹ s⁻¹ | 0.156 µg/mL
28 | B28 | 7.51 nM | 9.78e-05 s⁻¹ | 13000 M⁻¹ s⁻¹ | 0.174 µg/mL
29 | B29 | 10.6 nM | 0.000144 s⁻¹ | 13600 M⁻¹ s⁻¹ | 0.202 µg/mL
30 | B30 | 6.19 nM | 6.27e-05 s⁻¹ | 10100 M⁻¹ s⁻¹ | 0.441 µg/mL
31 | B31 | 1.82 nM | 1.97e-05 s⁻¹ | 10900 M⁻¹ s⁻¹ | 0.111 µg/mL
32 | B32 | 2.89 nM | 3.18e-05 s⁻¹ | 11000 M⁻¹ s⁻¹ | 0.0555 µg/mL
33 | B33 | 2.66 nM | 2.71e-05 s⁻¹ | 10200 M⁻¹ s⁻¹ | 
34 | B34 | 44.4 nM | 0.000792 s⁻¹ | 17800 M⁻¹ s⁻¹ | 
35 | B35 | 3.82 nM | 4.48e-05 s⁻¹ | 11700 M⁻¹ s⁻¹ | 
36 | B36 | 84.2 nM | 0.00188 s⁻¹ | 22300 M⁻¹ s⁻¹ | 
